Data reported in PMC5381515 (Structure (London, England : 1993), 2017).

B1: full-length human βB2-crystallin (natural protein, UniProt P43320 1-205, looked up)
chain: MASDHQTQAGKPQSLNPKIIIFEQENFQGHSHELNGPCPNLKETGVEKAGSVLVQAGPWVGYEQANCKGEQFVFEKGEYPRWDSWTSSRRTDSLSSLRPIKVDSQEHKIILYENPNFTGKKMEIIDDDVPSFHAHGYQEKVSSVRVQSGTWVGYQYPGYRGLQYLLEKGDYKDSSDFGAPHPQVQSVRRIRDMQWHQRGAFHPSN

Key:
[1] = target: truncated human βB2-crystallin (14–194) (human); test: SEC-MALS
SEC-MALS = target: the molecule itself; test: SEC-MALS

| Molecule | stoichiometry N [1] | stoichiometry N (SEC-MALS) |
| --- | --- | --- |
| truncated human βB2-crystallin (14–194) (domain or fragment) | 2 | – |
| B1 | – | 2 |
